# Data from paper PMC5028113.
# B1: IFN-γ aptamer hybridized with biotin-DNA and thiol-DNA (invertase conjugate) (mixed)
# DNA 1: TGGGGTTGGTTGTGTTGGGTGTTGTGTAAAAAAAAAAAAAACTACTCATCTGTGA
# DNA 2: AAAAAAAAAAAATCACAGATGAGTAGT
# ?: AAAAAAAAAAACAACCAACCCCA
# modifications: 5' biotin on strand 2; 5' thiol on strand 3
# Target: interferon-gamma (IFN-γ) (UniProt P01579 24-161)
# Experiment: competition
# Sequence of interferon-gamma (IFN-γ) (P01579 24-161): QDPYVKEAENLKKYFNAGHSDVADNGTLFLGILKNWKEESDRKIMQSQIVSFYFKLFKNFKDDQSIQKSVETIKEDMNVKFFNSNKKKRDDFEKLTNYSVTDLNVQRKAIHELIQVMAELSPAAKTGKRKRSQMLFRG
binder,measurement,value
B1,binding result,binds
